Measured values taken from patent publication US8158585B2, “Cross-β structure comprising amyloid-binding proteins and methods for detection of the cross-β structure, for modulating cross-β structures fiber formation and modulating cross-β structure-mediated toxicity” (CrossBeta Biosciences B.V., priority 2002, dated 2012).

Experiments:
[1] = target: T1, albumin-g6p (albumin-AGE) (Bos taurus, UniProt P02769); experiment: ELISA: binding of tPA (f.l. tPA, K2-P tPA) to albumin-g6p, with Congo red competition; design: species or system bovine; conditions: 20 nM tPA, increasing Congo red
T1 construct: Bovine serum albumin (BSA) fraction V pH 7.0; host or cells: bovine serum, fraction V
T1 sequence (P02769 25-607): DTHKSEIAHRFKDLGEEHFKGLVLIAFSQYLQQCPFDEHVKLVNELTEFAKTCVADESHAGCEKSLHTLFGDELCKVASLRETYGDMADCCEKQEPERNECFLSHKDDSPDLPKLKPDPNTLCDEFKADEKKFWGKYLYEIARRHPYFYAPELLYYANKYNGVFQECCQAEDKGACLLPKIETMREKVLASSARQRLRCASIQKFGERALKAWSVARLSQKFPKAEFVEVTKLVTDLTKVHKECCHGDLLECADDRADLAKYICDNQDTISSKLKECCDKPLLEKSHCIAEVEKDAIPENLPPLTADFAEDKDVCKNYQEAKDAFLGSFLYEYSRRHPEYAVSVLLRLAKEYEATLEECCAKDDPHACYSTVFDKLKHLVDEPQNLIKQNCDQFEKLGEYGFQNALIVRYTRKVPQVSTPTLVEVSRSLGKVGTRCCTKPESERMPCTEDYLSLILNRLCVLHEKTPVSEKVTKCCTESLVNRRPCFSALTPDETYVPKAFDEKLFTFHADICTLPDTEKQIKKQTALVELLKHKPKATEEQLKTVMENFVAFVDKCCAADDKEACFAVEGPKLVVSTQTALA
Method: (§1) Binding of tPA to albumin-g6p (four-week and 23-week incubations), albumin-glyceraldehyde, control albumin, human Hb-g6p (ten-week incubation), Hb control, or to Aβ (1-40) was tested using an enzyme-linked immunosorbent assay (ELISA) set-up. Albumin-g6p and control albumin (2.5 μg ml^−1 in coat buffer, 50 mM Na2CO3/NaHCO3 pH 9.6, 0.02% m/v NaN3, 50 μl/well) were immobilized for one hour at room temperature in 96-well protein Immobilizer plates (Exiqon, Vedbaek, Denmark). Aβ (1-40) (10 μg ml^−1 in coat buffer) was immobilized for 75 minutes at room temperature in a 96-well peptide Immobilizer plate (Exiqon, Vedbaek, Denmark). Control wells were incubated with coat buffer only. After a wash step with 200 μl of PBS/0.1% v/v Tween 20, plates were blocked with 300 μl of PBS/1% v/v Tween 20, for two hours at room temperature while shaking. All subsequent incubations were performed in PBS/0.1% v/v Tween 20 for one hour at room temperature while shaking, with volumes of 50 μl per well. After each incubation, wells were washed five times with 200 μl of PBS/0.1% v/v Tween 20. Increasing amounts of f.l. tPA or K2-P tPA was added in triplicate to coated wells and to control wells. […] Absorbance was read at 490 nm on a Vmax kinetic microplate reader (Molecular Devices, Sunnyvale, Calif., USA). […]

Aβ (1-40) = Aβ (1-40) (Homo sapiens, UniProt P05067); experiment: ELISA: binding of tPA (f.l. tPA, K2-P tPA) to Aβ (1-40), with Congo red competition; design: Peptide Aβ (1-40), containing amino acids as present in the described human Alzheimer peptide; purchased Pepscan, Inc. or peptide synthesis facility of the Netherlands Cancer Institute; host or cells: chemical synthesis; conditions: 40 nM tPA, 0-100 μM Congo red
Aβ (1-40), sequence (P05067 672-711): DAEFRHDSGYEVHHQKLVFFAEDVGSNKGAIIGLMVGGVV
Method: as §1

Aβ = target: T2, Aβ (Homo sapiens, UniProt P05067); experiment: Amyloid ELISA with tPA F-EGF-GST: Aβ; assay type: binding
T2 construct: Peptide Aβ (1-40), containing amino acids as present in the described human Alzheimer peptide; purchased Pepscan, Inc. or peptide synthesis facility of the Netherlands Cancer Institute; host or cells: chemical synthesis
T2 sequence (P05067 672-711): as above
Method: (§2) In order to define the affinity of the purified tPA F-EGF-GST recombinant protein, ELISAs were performed with immobilized amyloid (poly)peptides and non-amyloid control ΔmIAPP. Twenty-five μg ml^−1 of Aβ, FP13, IAPP or ΔmIAPP was immobilized on Exiqon peptide immobilizer plates. A concentration series of tPA F-EGF-GST in the presence of excess εACA was added to the wells and binding was assayed using anti-GST antibody Z-5. As a control, GST (Sigma-Aldrich, St. Louis, Mo., USA, catalogue #G-5663) was used at the same concentrations.

Aβ fibrils = target: T3, Aβ fibrils (Homo sapiens, UniProt P05067); experiment: Amyloid pull-down with insoluble Aβ fibers; assay type: binding; conditions: conditioned BHK medium
T3 construct: Peptide Aβ (1-40), containing amino acids as present in the described human Alzheimer peptide; purchased Pepscan, Inc. (The Netherlands) or peptide synthesis facility at the Netherlands Cancer Institute; host or cells: synthetic peptide
T3 sequence (P05067 672-711): as above

[2] = system: amyloid deposits in human brain inflicted by AD; experiment: Immunohistochemistry: binding of tPA F-EGF to human AD brain; conditions: 7 nM construct; Congo red fluorescence to locate amyloid
Method: Paraffin brain sections of a human inflicted with AD was a kind gift of Prof. Slootweg (Dept. of Pathology, UMC Utrecht). Sections were deparaffinized in a series of xylene-ethanol. Endogenous peroxidases were blocked with methanol/1.5% H2O2 for 15 minutes. After rinsing in H2O, sections were incubated with undiluted formic acid for ten minutes, followed by incubation in PBS for five minutes. Sections were blocked in 10% HPS in PBS for 15 minutes. Sections were exposed for two hours with 7 nM of tPA F-EGF-GST or GST in PBS/0.3% BSA. After three wash steps with PBS, sections were overlayed with 200 ng ml^−1 anti-GST antibody Z-5, for one hour. After washing, ready-to-use goat anti-rabbit Powervision (Immunologic, Duiven, The Netherlands, catalogue #DPVR-55AP) was applied and incubated for one hour. After washing, sections were stained for ten minutes with 3,3′-diamino benzidine (Sigma-Aldrich, St Louis, Mo., USA, catalogue #D-5905), followed by hematoxylin staining for ten seconds. After washing with H2O, sections were incubated with Congo red according to the manufacturer's recommendations (Sigma Diagnostics, St Louis, Mo., USA). […] Analysis of sections was performed on a Leica DMIRBE fluorescence microscope (Rijswijk, The Netherlands). Fluorescence of Congo red was analyzed using an excitation wavelength of 596 nm and an emission wavelength of 620 nm.

IAPP = target: T4, IAPP (Homo sapiens, UniProt P10997); experiment: Amyloid ELISA with tPA F-EGF-GST: IAPP; assay type: binding
T4 construct: purchased Pepscan, Inc. (The Netherlands) or peptide synthesis facility at the Netherlands Cancer Institute; host or cells: synthetic peptide
T4 sequence (P10997 34-70 limits assumed): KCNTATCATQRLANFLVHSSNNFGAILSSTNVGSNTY
Method: as §2

[3] = target: T5, fibrin fragment α148-160 FP13 (Homo sapiens, UniProt P02671); experiment: Amyloid ELISA with tPA F-EGF-GST: FP13; assay type: binding
T5 construct: purchased Pepscan, Inc. or peptide synthesis facility of the Netherlands Cancer Institute; host or cells: chemical synthesis
Method: as §2

IAPP fibrils = target: T6, IAPP fibrils (Homo sapiens, UniProt P10997); experiment: Amyloid pull-down with IAPP fibrils; assay type: binding; conditions: conditioned BHK medium
T6 construct: purchased Pepscan, Inc. (The Netherlands) or peptide synthesis facility at the Netherlands Cancer Institute; host or cells: synthetic peptide
T6 sequence (P10997 34-70 limits assumed): T4 sequence (P10997 34-70 limits assumed)
Method: Conditioned medium of BHK cells expressing GST-tagged tPA F, F-EGF, EGF, K1, F-EGF-K1, FXII F, HGFa F, Fn F4, Fn F5, Fn F4-5 and GST was used for amyloid binding assays. At first, constructs were adjusted to approximately equal concentration using Western blots. Qualitative binding of the recombinant fragments were evaluated using a “pull-down” assay. To this end, the recombinantly made fragments were incubated with either Aβ or IAPP fibrils. Since these peptides form insoluble fibers, unbound proteins can be easily removed from the fibers following centrifugation. The pellets containing the bound fragments were subsequently washed several times. Bound fragments were solubilized in SDS-sample buffer and analyzed by PAGE, as were unbound proteins in the supernatant fraction and starting material. The gels were analyzed using immunoblotting analysis with the anti-GST antibody Z-5.

Nc1c(/N=N/c2ccc(-c3ccc(/N=N/c4cc(S(=O)(=O)O)c5ccccc5c4N)cc3)cc2)cc(S(=O)(=O)O)c2ccccc12 [Congo red]
competition of tPA binding to albumin-g6p [1]: competed | competition of tPA binding to Aβ (Aβ (1-40)): competed

GST: glutathion-S-transferase tag alone, negative control
binding to Aβ (Aβ): some binding | binding to Aβ fibers (pull-down, Western blot) (Aβ fibrils): remain in the supernatant | binding to amyloid deposits in AD brain sections [2]: did not show specific binding | binding to IAPP (IAPP): did not bind | binding to FP13 [3]: did not bind

HGFa F-GST: finger domain of human hepatocyte growth factor activator with GST tag
binding to Aβ fibers (pull-down, Western blot) (Aβ fibrils): specifically bind | binding to IAPP fibrils (pull-down, not shown) (IAPP fibrils): specifically bind
